Measured values taken from publication PMC6491591.

How the values were obtained:
[1] = molecular target: endogenous Protein Kinase A catalytic subunit (PKA-Cα) of COS-1 cells; experiment: co-immunoprecipitation (IP: PKA-Cα antibody), western blot band intensity quantified with ImageJ; conditions: COS-1 cells expressing GRTH-V5, parent: est. 1.1, read off a plot
[2] = molecular target: endogenous Protein Kinase A catalytic subunit (PKA-Cα) of COS-1 cells; experiment: co-immunoprecipitation (IP: V5 antibody), western blot band intensity quantified with ImageJ; conditions: COS-1 cells expressing GRTH-V5, parent: est. 1.1, read off a plot

| response (Arbitrary units) [1] | response (Arbitrary units) [2] | Substance |
| --- | --- | --- |
| 0.88 | 0.88 | Gonadotropin Regulated Testicular Helicase (GRTH/DDX25), wild type, V5-His tagged (from UniProt Q9UHL0) E165A |
| 0.76 | 0.68 | Gonadotropin Regulated Testicular Helicase (GRTH/DDX25), wild type, V5-His tagged (from UniProt Q9UHL0) E165A; K240A |
| 0.34 | 0.34 | Gonadotropin Regulated Testicular Helicase (GRTH/DDX25), wild type, V5-His tagged (from UniProt Q9UHL0) T239A |
